The results in this text go back to publication doi:10.1101/2024.08.19.608714 (bioRxiv, 2024).

This data set concerns the molecule itself. In words: cryo-EM structure.

B1: human XPR1 (natural protein)
chain: MKFAEHLSAHITPEWRKQYIQYEAFKDMLYSAQDQAPSVEVTDEDTVKRYFAKFEEKFFQTCEKELAKINTFYSEKLAEAQRRFATLQNELQSSLDAQKESTGVTTLRQRRKPVFHLSHEERVQHRNIKDLKLAFSEFYLSLILLQNYQNLNFTGFRKILKKHDKILETSRGADWRVAHVEVAPFYTCKKINQLISETEAVVTNELEDGDRQKAMKRLRVPPLGAAQPAPAWTTFRVGLFCGIFIVLNITLVLAAVFKLETDRSIWPLIRIYRGGFLLIEFLFLLGINTYGWRQAGVNHVLIFELNPRSNLSHQHLFEIAGFLGILWCLSLLACFFAPISVIPTYVYPLALYGFMVFFLINPTKTFYYKSRFWLLKLLFRVFTAPFHKVGFADFWLADQLNSLSVILMDLEYMICFYSLELKWDESKGLLPNNSEESGICHKYTYGVRAIVQCIPAWLRFIQCLRRYRDTKRAFPHLVNAGKYSTTFFMVTFAALYSTHKERGHSDTMVFFYLWIVFYIISSCYTLIWDLKMDWGLFDKNAGENTFLREEIVYPQKAYYYCAIIEDVILRFAWTIQISITSTTLLPHSGDIIATVFAPLEVFRRFVWNFFRLENEHLNNCGEFRAVRDISVAPLNADDQTLLEQMMDQDDGVRNRQKNRSWKYNQSISLRRPRLASQSKARDTKVLIEDTDDEANT
As to B1, the “stoichiometry N” value is 2.

For orientation: stoichiometry N means the number of molecules, sites or subunits per partner or assembly.
